# Laboratory results taken from patent publication EP4631972A1, “SITE-SPECIFIC COUPLED PEGYLATED INTERLEUKIN-2 MUTANT WITH RECEPTOR AFFINITY PREFERENCE AND USE THEREOF” (priority 2022, dated 2024).
# B1: 80K-1PEG-IL2-N88R-N77C: IL-2 mutant N88R, N77C, conjugation site 77, PEG molecular weight 80kD (conjugate)
# chain: APTSSSTKKTQLQLEHLLLDLQMILNGINNYKNPKLTRMLTFKFYMPKKATELKHLQCLEEELKPLEEVLNLAQSKC(PEG 80 kDa)FHLRPRDLISRINVIVLELKGSETTFMCEYADETATIVEFLNRWITFSQSIISTLT
# Biological target: T1, IL-2αβγ triple receptor (Homo sapiens, UniProt P01589+P14784+P31785)
# T1 construct: Uniprot P01589 1Met-551Ile constructed into plasmid pcDNA3.1/zeo; Uniprot P14784 1Met-551Val constructed into plasmid pcDNA3.1(+); Uniprot P31785 1Met-551Thr was constructed into plasmid pcDNA3.1/zeo; expressed in transfected cells; host or cells: 293EC18 cells, transient co-transfection with pCMV/JAK3 and PGL4.52/STAT5RE
# T1 sequence (P01589 22-272): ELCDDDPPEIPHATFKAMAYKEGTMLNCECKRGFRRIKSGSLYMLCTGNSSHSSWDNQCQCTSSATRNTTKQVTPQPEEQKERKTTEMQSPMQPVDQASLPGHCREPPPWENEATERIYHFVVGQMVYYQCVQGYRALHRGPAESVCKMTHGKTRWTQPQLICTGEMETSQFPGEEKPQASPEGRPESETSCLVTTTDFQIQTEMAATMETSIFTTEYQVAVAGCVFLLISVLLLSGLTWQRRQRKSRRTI
# T1 sequence (P14784 27-551): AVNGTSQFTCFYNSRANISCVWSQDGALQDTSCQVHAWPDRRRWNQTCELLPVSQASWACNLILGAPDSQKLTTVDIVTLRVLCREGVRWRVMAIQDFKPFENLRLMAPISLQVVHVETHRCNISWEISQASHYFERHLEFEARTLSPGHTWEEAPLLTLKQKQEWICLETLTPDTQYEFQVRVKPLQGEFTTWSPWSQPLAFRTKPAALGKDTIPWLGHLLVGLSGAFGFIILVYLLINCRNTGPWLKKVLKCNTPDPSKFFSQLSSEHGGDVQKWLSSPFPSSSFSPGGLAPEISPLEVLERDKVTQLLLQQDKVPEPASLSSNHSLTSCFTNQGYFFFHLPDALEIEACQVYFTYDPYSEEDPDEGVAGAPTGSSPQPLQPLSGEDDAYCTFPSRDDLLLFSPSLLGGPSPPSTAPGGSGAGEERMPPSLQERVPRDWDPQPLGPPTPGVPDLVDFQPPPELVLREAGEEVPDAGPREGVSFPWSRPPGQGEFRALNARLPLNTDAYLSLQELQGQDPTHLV
# T1 sequence (P31785 23-369): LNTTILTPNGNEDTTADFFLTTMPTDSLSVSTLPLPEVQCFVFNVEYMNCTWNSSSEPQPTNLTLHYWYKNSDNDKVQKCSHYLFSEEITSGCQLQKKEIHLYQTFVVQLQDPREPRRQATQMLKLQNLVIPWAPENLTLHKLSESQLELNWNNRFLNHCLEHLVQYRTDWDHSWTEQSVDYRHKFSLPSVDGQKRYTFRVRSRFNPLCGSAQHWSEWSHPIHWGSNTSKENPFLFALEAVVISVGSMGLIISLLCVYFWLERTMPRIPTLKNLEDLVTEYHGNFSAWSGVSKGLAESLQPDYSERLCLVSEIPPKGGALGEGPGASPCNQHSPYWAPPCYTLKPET
# Test: STAT5 reporter gene assay, activation of IL-2αβγ triple receptor in 293EC18/αβγ/JAK3/STAT5 cells
# Type: cell-based
# Conditions: Example 4, Figure 6, 80k PEG
# Protocol: Since the binding of IL-2 to the β and γ subunits of its receptor induces STAT5 phosphorylation, which subsequently leads to dimerization and translocation into the nucleus to promote target gene transcription, this example evaluates the ability of the mutant IL-2 polypeptides to induce signaling through the IL-2 receptor by measuring STAT5 phosphorylation.
# Adherent 293EC18 cells were cultured to about 90% confluence using conventional methods. After trypsin digestion, the cells were resuspended in cell culture medium to 4×10^5 cells/ml and 50 µl/well were added to two 96-well cell culture plates. After incubation at 37°C for 48 h, the supernatant was aspirated and fresh culture medium was added. […]
# Each IL2 mutant was diluted 4-fold in a gradient manner using PBS buffer, with a total of 11 dilutions and a starting concentration of 65.2 nM. […] Bio-Lite Luciferase Assay System reagents that have been mixed and equilibrated to room temperature were added to the cell culture plates to be tested at 100 µl/well, placed on a microplate shaker at 450 rpm to mix for 2 minutes, then allowed to stand at room temperature for 3 minutes, and the chemiluminescence value was detected with an enzyme plate reader.
# The logarithm of the final concentration of each IL-2 mutant sample was used as the X-axis, and the chemiluminescence detection results were used as the Y-axis for plotting. Data were analyzed using the four-parameter logistic regression model in GraphPad Prism 9. Table 2 EC50 values for the activation of the IL-2αβγ triple receptor by PEG-IL-2 mutants as determined by a reporter gene assay.
# According to the method of Example 3, each polyethylene glycol-modified mutant obtained in this example was assessed for the binding preference to the IL2 receptors by a reporter assay. Table 4 EC50 values for the activation of the IL-2αβγ triple receptor by PEG-IL-2 mutants as determined by a reporter gene assay. […]
molecule,measurement,value
B1,activation activity on the IL-2Rαβγ triple receptor compared with 80K-1PEG-IL2-N88R-D109C,slightly higher activation activity
